The target of one experiment is T1, GST-SHP2 (UniProt Q06124 1-593).
T1 sequence (looked up): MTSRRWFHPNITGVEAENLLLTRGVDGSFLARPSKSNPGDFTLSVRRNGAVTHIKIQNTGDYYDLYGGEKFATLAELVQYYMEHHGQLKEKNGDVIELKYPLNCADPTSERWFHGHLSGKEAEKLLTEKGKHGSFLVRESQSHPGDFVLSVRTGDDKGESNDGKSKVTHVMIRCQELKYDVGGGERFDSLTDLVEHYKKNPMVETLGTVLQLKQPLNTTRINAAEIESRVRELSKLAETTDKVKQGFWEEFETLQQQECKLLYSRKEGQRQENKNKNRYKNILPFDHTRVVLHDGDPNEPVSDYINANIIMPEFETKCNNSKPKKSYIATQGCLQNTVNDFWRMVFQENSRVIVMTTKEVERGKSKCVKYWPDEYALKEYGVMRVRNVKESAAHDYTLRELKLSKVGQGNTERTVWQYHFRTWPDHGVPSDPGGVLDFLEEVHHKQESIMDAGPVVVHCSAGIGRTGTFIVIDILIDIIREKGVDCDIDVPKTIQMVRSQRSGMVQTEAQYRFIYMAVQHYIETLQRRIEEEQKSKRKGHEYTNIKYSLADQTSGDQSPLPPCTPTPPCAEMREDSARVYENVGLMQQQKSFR
The experiment in a line: pull-down.

Experiment [1] deals with T2, SHP2_(2SH2) (UniProt Q06124 1-221).
T2 sequence (looked up): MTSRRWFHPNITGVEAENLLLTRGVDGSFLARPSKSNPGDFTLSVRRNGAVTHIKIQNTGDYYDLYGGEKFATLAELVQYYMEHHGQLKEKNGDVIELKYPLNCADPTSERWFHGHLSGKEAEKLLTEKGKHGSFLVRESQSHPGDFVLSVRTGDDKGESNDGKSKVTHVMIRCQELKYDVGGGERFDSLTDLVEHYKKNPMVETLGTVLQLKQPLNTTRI
Kind of experiment: pull-down.

The target of experiment [2] is T2, SHP2_(2SH2). Kind of experiment: ITC.

As usually defined, the Kd is a measure of binding affinity in units of concentration. Low readings indicate higher affinity, high ones lower affinity. The term stoichiometry N denotes a count of units in the complex or per binding partner.

B1: pFGFR2_(Cyto) (domain or fragment, UniProt P21802 400-821, looked up)
chain: MKNTTKKPDFSSQPAVHKLTKRIPLRRQVTVSAESSSSMNSNTPLVRITTRLSSTADTPMLAGVSEYELPEDPKWEFPRDKLTLGKPLGEGCFGQVVMAEAVGIDKDKPKEAVTVAVKMLKDDATEKDLSDLVSEMEMMKMIGKHKNIINLLGACTQDGPLYVIVEYASKGNLREYLRARRPPGMEYSYDINRVPEEQMTFKDLVSCTYQLARGMEYLASQKCIHRDLAARNVLVTENNVMKIADFGLARDINNIDYYKKTTNGRLPVKWMAPEALFDRVYTHQSDVWSFGVLMWEIFTLGGSPYPGIPVEELFKLLKEGHRMDKPANCTNELYMMMRDCWHAVPSQRPTFKQLVEDLDRILTLTTNEEYLDLSQPLEQYSPSYPDTRSSCSSGDDSVFSPDPMPYEPCLPQYPHINGSVKT
modifications: tyrosine phosphorylated in vitro (sites not printed for the preparation)
With B1, the binding result with GST-SHP2 was “binds”.

B2: GST-pC58 (domain or fragment, UniProt P21802 763-821, looked up)
chain: LTTNEEYLDLSQPLEQYSPSYPDTRSSCSSGDDSVFSPDPMPYEPCLPQYPHINGSVKT
modifications: tyrosine phosphorylated in vitro
In the case of B2, in the experiment with SHP2_(2SH2) [1], the binding result is on record as “binds”.

B3: pFGFR2C58 (domain or fragment, UniProt P21802 764-821, looked up)
chain: TTNEEYLDLSQPLEQYSPSYPDTRSSCSSGDDSVFSPDPMPYEPCLPQYPHINGSVKT
modifications: tyrosine phosphorylated in vitro (sites not printed for the preparation)
On to B3, for which, in the experiment with SHP2_(2SH2) [2], the Kd is about 8 µM and the “stoichiometry N” value was determined as 1.

The values are drawn from PMC8937303 (Molecular Cell, 2022).
